Entries after “also recorded” stand apart in the source; their conditions may differ.
B1: A10: anti-Tie1 antibody; VH SEQ ID NO:60, VL SEQ ID NO:62 (antibody, V domains shown)
VH: EVQLLESGGGLVQPGGSLRLSCAASGFTFSNYVMVWVRQAPGKGLEWVSGIYPSGGHTKYADSVKGRFTISRDNSKNTLYLQMNSLRAEDTAVYYCARVNYYDSSGYGPIAPGLDYWGQGTLV
VL: HSAQDIQMTQSPGTLSLSPGERATLFCRASQRVTSNSLAWYQQRPGQAPRLLIYDASTRATGIPDRFSGSGSGRDFTLTISRLEPEDFAVYYCQRYGSSVLYSFGQGTKLEIT
modifications: Synthetically generated peptide
B2: P-B3: anti-Tie1 antibody; VH SEQ ID NO:24, VL SEQ ID NO:26 (antibody, V domains shown)
VH: EVQLLESGGGLVQPGGSLRLSCAASGFTFSRYGMHWVRQAPGKGLEWVSVISPSGGMTYYADSVKGRFTISRDNTKNTLYLQMNSLRAEDTAVYYCARVGATGPFDIWGQGTMVTVSSASTKGPSVFPLAP
VL: QDIQMTQSPATLSLSPGERATLSCRASQSVSTYLAWYQQKPGQAPRLLIYDASNRATGIPGRFSGSGSGTDFTLTISSLEAEDFAVYYCQQRSSWPITFGQG
modifications: Synthetically generated peptide
B3: P-C6: anti-Tie1 antibody; VH SEQ ID NO:28, VL SEQ ID NO:30 (antibody, V domains shown)
VH: EVQLLESGGGLVQPGGSLRLSCAASGFTFSHYGMTWVRQAPGKGLEWVSVISPSGGQTGYADSVKGRFTISRDNSKNTLYLQMNSLRAEDTAVYYCAGGGYAAFDYWGQGTLVTVSSASTKGPSVFPLAPSSKSTSGGTAALG
VL: QDIQMTQSPATLSLSPGERATLSCRASQSVSSYLAWYQQKPGQAPRLLIYDASNRATGIPARFSGSGSGTDFTLTISSLEPEDFAVYYCQQRSNWPLTFGGG
modifications: Synthetically generated peptide
B4: A2: anti-Tie1 antibody; VH SEQ ID NO:56, VL SEQ ID NO:58; not the anti-streptavidin A2-SV (antibody, V domains shown)
VH: EVQLLESGGGLVQPGGSLRLSCAASGFTFSRYTMMWVRQAPGKGLEWVSGIYPSGGVTLYADSVKGRFTISRDNSKNTLYLQMNSLRAEDTAVYYCARVNYYDSSGYGPIAPGLDYWGQGTLVTVSSASTKGPSVFP
VL: HSAQDIQMTQSPGTLSLSPGERATLSCRASRSVIISYVAWYQQKPGQAPRLLIYGASTRATGIPDRFSGSGSGTDFTLTISRLEPEDFAVYFCQLYGRSPRIIFGQGTRLEIK
modifications: Synthetically generated peptide
notes: anti-Tie1 antibody; not the anti-streptavidin A2-SV
B5: C7: anti-Tie1 antibody; VH SEQ ID NO:76, VL SEQ ID NO:78 (antibody, V domains shown)
VH: EVQLLESGGGLVQPGGSLRLSCAASGFTFSRYVMYWVRQAPGKGLEWVSVIYPSGGATYYADSVKGRFTISRDNSKNTLYLQMNSLRAEDTAVYYCARRGSSGAFDYWGQGTLVTVSSASTKGPSVFP
VL: HSAQSVLTQPASVSGSPGQSITISCTGTSSDIGRYNYASWYQQRPGKSPKLLIYEVSDRPSGVSNRFSGSKSGNTASLIISGLQAEDEADYYCSSYSSTNSLQVVFGGGTKLSVLGQPKAAPSVTLFPPSSEELQANKATLVCL
modifications: Synthetically generated peptide
B6: B2: anti-Tie1 antibody; VH SEQ ID NO:64, VL SEQ ID NO:66 (antibody, V domains shown)
VH: EVQLLESGGGLVQPGGSLRLSCAASGFTFSIYGMAWVRQAPGKGLEWVSVISPSGGQTFYADSVKGRFTISRDNSKNTLYLQMNSLRAEDTAVYYCARVYYYGMDVWGQGTTVTVSSASTKGPSVFP
VL: HSAQDIQMTQSPATLSLSPGERATLSCRASQSVSSYLAWYQQKPGQAPRLLIYDASNRATGIPARFSGSGSETDFTLTISSLEPEDFAVYYCQQRSKWPRTFGQGTKLEIK
modifications: Synthetically generated peptide
B7: G2: anti-Tie1 antibody; HC SEQ ID NO:110, LC SEQ ID NO:112 (antibody)
heavy: EVQLLESGGGLVQPGGSLRLSCAASGFTFSSYKMGWVRQAPGRGLEWVSSIYPSGGWTHYADSVKGRFTISRDNSKNTLYLQMNSLRAEDTAVYYCARVLLHYFDYWGQGTLVTVSSASTKGPSVFPLAPSSKSTSGAQRPWAAWSRTTSRDTGDGV
light: QSVLTQPASVSGSPGQSITISCTGTSSDVGGYKYVSWYQQHPGKAPKLIISDVNNRPSGVSDRFSGSKSGNTASLTISGLQAEDDGDYYCSSYASSSYTSSTTWVFGG
modifications: Synthetically generated peptide

Assays:
[1] = molecular target: T1, Tie1-EpoR chimeric receptor (UniProt P14753+P35590); assay: Ba/F3 bioassay (Tie1/EpoR chimeric BaF3 cell assay), MTT viability; assay type: cell-based, human; conditions: 100 ng/ml E3 IgG together with 100 (1:1) or 500 (1:5) ng/ml of the other antibody
T1 construct: the PCR amplified extracellular part of human Tie1 (bp 37-2316 of X60975); expressed in transfected cells
T1 sequence (P35590+P14753 with tags, fused parts or gaps): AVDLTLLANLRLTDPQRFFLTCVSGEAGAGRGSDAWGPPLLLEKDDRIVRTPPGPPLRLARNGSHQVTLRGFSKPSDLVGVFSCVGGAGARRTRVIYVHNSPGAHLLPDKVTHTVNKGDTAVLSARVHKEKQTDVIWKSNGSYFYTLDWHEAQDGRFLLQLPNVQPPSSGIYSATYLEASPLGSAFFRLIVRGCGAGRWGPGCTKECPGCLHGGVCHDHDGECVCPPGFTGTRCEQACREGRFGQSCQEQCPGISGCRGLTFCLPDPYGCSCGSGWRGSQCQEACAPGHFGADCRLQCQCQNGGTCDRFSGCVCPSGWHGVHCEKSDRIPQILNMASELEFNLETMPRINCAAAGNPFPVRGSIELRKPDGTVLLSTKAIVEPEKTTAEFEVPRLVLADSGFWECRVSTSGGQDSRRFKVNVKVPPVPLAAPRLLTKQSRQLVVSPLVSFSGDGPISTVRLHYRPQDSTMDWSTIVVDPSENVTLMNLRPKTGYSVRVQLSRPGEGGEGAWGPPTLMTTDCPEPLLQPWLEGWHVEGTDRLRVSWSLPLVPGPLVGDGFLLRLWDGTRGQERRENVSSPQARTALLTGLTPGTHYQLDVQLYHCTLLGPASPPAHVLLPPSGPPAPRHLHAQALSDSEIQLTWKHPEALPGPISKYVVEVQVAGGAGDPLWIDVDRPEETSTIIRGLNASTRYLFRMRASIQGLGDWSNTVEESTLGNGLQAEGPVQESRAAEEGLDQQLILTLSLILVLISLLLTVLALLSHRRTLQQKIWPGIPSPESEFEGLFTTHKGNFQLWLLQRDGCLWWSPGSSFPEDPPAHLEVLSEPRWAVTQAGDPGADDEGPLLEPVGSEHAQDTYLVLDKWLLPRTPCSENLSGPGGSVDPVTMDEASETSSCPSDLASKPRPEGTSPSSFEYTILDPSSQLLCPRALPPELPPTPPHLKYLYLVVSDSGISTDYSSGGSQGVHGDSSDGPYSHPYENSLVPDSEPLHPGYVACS
Text: To generate Tie1-EpoR expressing Ba/F3 cells for the bioassay, Ba/F3 pre-B cells were stably transfected with a nucleic acid that expresses chimeric receptor containing the extracellular domain of human Tie1 fused with the transmembrane and cytoplasmic domains of the mouse erythropoietin receptor. The nucleic acid used was a Tie1-EpoR chimeric cDNA in a pEF-BOS expression vector. The nucleic acid encoding the chimeric receptor was constructed by cloning the PCR amplified extracellular part of human Tie1 (bp 37-2316 of X60975) as EcoRI-BglII fragment into mEpoR-pcDNA vector. The cDNA encoding for the chimeric receptor consisting of the extracellular part of Tie1 fused with the transmembrane and intracellular domains of EpoR was subcloned into the pEF-BOS expression vector. Vector was linearized and co-transfected into Ba/F3 cells with pcDNA3.1(+) Zeo vector (Invitrogen). Stable cell pools were generated by selection with 250 μg/ml Zeocin. The expression of Tie1/EpoR fusion protein in several clones was analyzed by Western blotting with an antibody against EpoR.
To perform the assays, Ba/F3 cells expressing the Tie 1-EpoR chimera were split in 96-well microtiter plates at 50 000 cells/well in the presence of the indicated concentrations of anti-Tie1 antibodies. As controls, Zeocin resistant pools not expressing the Tie1-EpoR were used. After 48 h, the viability of the cells was determined by adding MTT (3-(4,5-dimethylthiazol-2-yl)-2,5-diphenyl tetrazolium bromide (Sigma), 0.5 mg/ml), followed by further 2 h of culture, addition of an equal volume of cell lysis solution (10% SDS, 10 mM HCl) and incubation overnight at 37° C. Absorbance was measured at 540 nm.
Although no ligand for Tie1 has been identified, we used the following efficient screening method for Tie1-binding proteins. Interleukin-3 dependent pre-B-lymphocyte (Ba/F3) cells were transfected with a construct that expresses a Tie1-EpoR fusion protein. Since Ba/F3 cells are IL-3 dependent, they die unless IL-3 is provided. However, Tie-EpoR receptor expressing Ba/F3 cells can survive and proliferate if the medium contains a Tie1-binding protein, either a natural ligand or an artificial mimetic. Cell survival can be quantitated, e.g., by colorimetric MTT-assay, which measures mitochondrial activity.

[2] = molecular target: Tie1 (Homo sapiens, UniProt P35590); assay: Immunohistochemistry of matched human tumor and normal tissue sections; parameters: from tissue; host or cells: fresh frozen normal and tumor tissue (e.g. lung, kidney, skin, breast); conditions: fresh frozen tissue
Protocol: The Tie-1 antibodies were biotinylated using the EZ-link Sulfo-NHS-SS-Biotin (Pierce, Cat. 21331). For Tie-1/Fc and Tie-1-His, the reaction was performed for 2 hours on ice in 50 mM sodium carbonate buffer, pH 9.6, in the presence of a 5-fold molar excess of biotinylating agent. For the antibodies, the reaction was performed for 2 hours on ice in PBS, in the presence of a 15-fold molar excess of EZ-link Sulfo-NHS-SS-Biotin. The reaction was stopped by the addition of Tris-HCl, pH 7.5 (50 mM final concentration) followed by a 1-hour incubation on ice. Samples were then dialyzed against PBS.
Various normal and tumor tissue sections were stained with biotinylated antibodies. A mouse monoclonal anti-Tie1 antibody (7e8) (Alitalo laboratory, University of Helsinki) was used as a positive control. Sections without primary antibody served as negative control. All samples were fresh frozen tissues and staining was performed with the TSA-kit (Perkin-Elmer Life Sciences). After acetone fixation (10-20 min, −20° C.) the slides were treated with 0.73% H2O2 for 10 min to reduce endogenous peroxidase activity followed by blocking for 30 min with TNB buffer. Sections ([…] thick) were incubated with primary antibodies (10 μg/ml) overnight at 4° C. Sections with the mouse monoclonal anti-tie1 antibody (7e8) were treated with biotinylated anti-mouse antibodies (VectaStain) before the addition of streptavidin-HRP. Signal was amplified by using a TSA kit and the visualized by AEC (235 ml NaAc, 15 ml AEC (stock solution: 1600 mg 3-amino-9-ethyl-carbazole and 480 ml N-dimethylformamide), 250 μl H2O2).

Sequence of Tie1 (P35590 22-1138): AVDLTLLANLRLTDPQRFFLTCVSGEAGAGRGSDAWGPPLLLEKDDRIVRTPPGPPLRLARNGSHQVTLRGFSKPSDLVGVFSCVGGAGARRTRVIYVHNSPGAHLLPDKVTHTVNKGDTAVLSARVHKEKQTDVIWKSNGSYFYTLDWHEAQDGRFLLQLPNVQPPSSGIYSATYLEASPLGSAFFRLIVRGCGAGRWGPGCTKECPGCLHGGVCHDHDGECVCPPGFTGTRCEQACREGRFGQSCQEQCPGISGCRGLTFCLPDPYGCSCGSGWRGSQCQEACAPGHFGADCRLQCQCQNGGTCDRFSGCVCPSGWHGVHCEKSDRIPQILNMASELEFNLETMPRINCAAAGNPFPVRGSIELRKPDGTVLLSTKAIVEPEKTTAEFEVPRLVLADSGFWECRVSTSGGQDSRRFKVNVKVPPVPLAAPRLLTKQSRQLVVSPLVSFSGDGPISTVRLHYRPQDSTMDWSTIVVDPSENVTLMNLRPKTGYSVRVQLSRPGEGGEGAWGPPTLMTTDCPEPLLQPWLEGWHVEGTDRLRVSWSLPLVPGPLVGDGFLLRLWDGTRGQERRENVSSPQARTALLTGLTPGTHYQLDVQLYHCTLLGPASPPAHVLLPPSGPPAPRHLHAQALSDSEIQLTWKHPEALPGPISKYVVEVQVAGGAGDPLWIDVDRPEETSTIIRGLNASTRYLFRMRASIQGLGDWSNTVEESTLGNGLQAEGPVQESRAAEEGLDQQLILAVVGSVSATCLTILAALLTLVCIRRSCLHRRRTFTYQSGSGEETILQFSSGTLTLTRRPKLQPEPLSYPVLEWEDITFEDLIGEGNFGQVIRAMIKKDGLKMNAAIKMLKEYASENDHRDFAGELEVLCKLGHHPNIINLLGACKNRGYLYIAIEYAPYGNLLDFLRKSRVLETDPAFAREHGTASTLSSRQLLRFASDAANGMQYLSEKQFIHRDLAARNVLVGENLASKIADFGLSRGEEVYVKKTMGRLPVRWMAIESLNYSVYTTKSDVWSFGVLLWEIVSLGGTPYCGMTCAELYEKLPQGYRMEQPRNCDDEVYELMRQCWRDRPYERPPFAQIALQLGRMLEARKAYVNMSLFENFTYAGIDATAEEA

| Molecule | effect on the survival effect of E3 IgG in Tie1-EpoR Ba/F3 assay [1] | also measured |
| --- | --- | --- |
| B1 | inhibited the viability effect of E3 IgG to some extent | – |
| B2 | inhibited the viability effect of E3 IgG to some extent | – |
| B3 | inhibited the viability effect of E3 IgG to some extent | – |
| B4 | inhibited the viability effect of E3 IgG to some extent | – |
| B5 | promoted the survival | – |
| B6 | completely blocked the viability; also recorded: blocked completely the survival effect of E3 IgG; also recorded: counteract the agonistic activity of E3 | staining of breast carcinoma ([2]; 10 μg/ml): stained also other structures in addition to vessels; staining of kidney ([2]; 10 μg/ml): only very faint staining of either tubules or vessels; staining of lung carcinoma ([2]; 10 μg/ml): stained structures other than vessels; staining of melanoma tissue ([2]; 10 μg/ml): also stained other surrounding structures; staining of normal lung (large veins) ([2]; 10 μg/ml): did not stain the same veins; staining of normal skin ([2]; 10 μg/ml): stained blood vessels very faintly; staining of vessels in normal tissues (tissue specificity) ([2]; biotinylated IgG 10 μg/ml): stained vessels very faintly in other normal tissues than in the breast |
| B7 | promoted the survival | – |

Source: patent US7871610B2, “Antibodies to Tie1 ectodomain” (Dyax Corp., priority 2003, dated 2011)
